Results from publication PMC7615972.

Experiments:
Assay in all cases: SPR; mouse CACHD1ECD as analyte; FZD CRDs or LRP6 fragments immobilised; equilibrium dissociation constants
[1] = target: human FZD7 cysteine-rich domain (FZD7CRD) (human) (UniProt O75084)
[2] = target: human LRP6 membrane distal fragment (LRP6_(P1E1P2E2)) (human) (UniProt O75581)
[3] = target: human FZD8 cysteine-rich domain (FZD8CRD) (human) (UniProt Q9H461)
human FZD8 cysteine-rich domain (FZD8CRD) (human), sequence (Q9H461 28-694): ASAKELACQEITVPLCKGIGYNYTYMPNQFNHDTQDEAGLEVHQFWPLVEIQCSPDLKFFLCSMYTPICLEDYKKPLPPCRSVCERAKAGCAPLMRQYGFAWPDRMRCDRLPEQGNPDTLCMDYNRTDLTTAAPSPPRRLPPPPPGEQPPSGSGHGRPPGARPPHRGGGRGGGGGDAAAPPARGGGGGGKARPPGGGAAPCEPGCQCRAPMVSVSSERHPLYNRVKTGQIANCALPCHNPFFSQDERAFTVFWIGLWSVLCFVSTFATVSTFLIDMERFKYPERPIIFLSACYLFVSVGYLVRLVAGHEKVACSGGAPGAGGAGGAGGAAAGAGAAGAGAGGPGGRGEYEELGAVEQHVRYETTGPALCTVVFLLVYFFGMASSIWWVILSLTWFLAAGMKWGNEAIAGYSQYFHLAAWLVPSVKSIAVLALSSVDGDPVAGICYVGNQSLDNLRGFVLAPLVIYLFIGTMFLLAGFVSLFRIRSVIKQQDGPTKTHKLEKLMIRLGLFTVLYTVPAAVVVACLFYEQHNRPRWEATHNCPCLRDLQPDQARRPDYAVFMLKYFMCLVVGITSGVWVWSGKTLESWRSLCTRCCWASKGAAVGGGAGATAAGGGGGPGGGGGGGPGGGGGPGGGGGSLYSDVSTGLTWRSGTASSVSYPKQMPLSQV

purified mouse CACHD1 extracellular domain (CACHD1ECD), sequence (Q6PDJ1 50-1109): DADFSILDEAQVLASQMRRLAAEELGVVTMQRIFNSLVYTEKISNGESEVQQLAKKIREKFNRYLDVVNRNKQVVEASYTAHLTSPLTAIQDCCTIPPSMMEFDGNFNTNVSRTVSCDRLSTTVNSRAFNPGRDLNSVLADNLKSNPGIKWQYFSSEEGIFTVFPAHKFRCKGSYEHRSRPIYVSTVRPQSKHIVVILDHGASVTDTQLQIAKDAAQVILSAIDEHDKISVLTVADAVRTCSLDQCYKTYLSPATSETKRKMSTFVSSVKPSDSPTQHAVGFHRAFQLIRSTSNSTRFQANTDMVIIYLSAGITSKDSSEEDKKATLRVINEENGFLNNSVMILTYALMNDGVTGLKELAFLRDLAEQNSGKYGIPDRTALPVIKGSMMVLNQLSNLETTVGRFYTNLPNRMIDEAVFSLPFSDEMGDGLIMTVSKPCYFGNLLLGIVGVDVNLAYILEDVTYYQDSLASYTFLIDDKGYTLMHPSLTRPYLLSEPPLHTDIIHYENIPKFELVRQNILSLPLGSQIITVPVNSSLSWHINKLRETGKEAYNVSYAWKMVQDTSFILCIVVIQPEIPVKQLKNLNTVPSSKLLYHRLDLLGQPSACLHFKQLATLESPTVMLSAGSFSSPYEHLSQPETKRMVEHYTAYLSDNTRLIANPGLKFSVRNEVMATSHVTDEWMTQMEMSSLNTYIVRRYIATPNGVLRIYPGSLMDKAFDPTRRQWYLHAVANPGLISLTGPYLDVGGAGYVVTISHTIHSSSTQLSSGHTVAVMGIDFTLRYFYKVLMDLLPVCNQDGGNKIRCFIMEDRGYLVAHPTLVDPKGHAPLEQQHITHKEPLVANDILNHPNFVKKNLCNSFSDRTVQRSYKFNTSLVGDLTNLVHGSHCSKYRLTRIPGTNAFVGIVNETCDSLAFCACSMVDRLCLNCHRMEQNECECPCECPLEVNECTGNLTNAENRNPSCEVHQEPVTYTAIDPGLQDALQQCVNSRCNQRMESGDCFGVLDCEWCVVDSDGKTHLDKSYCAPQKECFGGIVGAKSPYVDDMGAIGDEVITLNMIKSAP
human LRP6 membrane distal fragment (LRP6_(P1E1P2E2)) (human), sequence (O75581 20-1613): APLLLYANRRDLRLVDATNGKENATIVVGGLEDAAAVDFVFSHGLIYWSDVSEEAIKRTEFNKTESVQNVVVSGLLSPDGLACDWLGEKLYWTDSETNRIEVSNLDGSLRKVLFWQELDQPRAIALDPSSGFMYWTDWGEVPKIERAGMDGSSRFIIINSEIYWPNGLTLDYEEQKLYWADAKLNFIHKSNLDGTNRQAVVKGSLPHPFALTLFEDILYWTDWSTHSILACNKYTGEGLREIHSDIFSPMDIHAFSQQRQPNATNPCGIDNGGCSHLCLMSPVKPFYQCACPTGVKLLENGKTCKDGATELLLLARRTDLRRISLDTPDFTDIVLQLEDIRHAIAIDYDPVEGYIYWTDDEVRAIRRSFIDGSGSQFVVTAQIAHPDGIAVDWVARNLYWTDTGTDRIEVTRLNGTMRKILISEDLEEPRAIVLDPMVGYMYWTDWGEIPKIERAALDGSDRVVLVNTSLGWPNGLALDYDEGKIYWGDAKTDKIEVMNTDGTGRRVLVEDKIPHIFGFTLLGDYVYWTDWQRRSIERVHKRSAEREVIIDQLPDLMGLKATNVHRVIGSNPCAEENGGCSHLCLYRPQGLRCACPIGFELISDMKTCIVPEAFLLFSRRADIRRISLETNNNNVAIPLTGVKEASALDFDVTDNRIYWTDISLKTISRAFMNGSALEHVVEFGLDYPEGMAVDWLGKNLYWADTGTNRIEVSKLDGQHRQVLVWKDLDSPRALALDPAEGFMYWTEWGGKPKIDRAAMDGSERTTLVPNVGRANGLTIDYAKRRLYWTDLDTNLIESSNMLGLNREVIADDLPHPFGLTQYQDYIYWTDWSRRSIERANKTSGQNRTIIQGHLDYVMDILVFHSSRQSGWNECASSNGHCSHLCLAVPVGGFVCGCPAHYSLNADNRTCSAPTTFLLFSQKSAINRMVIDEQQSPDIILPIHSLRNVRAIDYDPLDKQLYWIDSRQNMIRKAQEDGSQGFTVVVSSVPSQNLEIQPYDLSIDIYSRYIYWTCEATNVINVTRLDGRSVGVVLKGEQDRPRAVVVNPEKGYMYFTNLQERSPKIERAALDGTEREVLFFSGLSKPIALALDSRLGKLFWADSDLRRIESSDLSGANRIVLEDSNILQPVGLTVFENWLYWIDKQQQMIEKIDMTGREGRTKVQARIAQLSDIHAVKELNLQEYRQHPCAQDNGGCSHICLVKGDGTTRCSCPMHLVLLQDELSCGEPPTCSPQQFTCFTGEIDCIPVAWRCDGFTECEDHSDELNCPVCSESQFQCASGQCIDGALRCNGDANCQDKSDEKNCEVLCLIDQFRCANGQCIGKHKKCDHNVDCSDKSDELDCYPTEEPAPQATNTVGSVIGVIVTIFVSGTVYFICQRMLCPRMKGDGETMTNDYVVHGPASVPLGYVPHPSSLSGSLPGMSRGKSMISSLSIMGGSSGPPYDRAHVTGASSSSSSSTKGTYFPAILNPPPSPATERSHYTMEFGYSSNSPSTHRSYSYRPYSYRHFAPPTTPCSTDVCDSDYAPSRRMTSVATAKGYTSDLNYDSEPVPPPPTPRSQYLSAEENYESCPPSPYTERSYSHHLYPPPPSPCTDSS

Kd [1]: 14.2 µM | Kd [2]: 5.86 µM | Kd [3]: 0.95 µM
Substance: purified mouse CACHD1 extracellular domain (CACHD1ECD) (from UniProt Q6PDJ1 50-1109) (domain or fragment)
